Data published in patent publication US20230250154A1 (CYTONICS, published 2023).

T1: ADAMTS4 (human, UniProt O75173 213-685, limits assumed)
T1 sequence (looked up): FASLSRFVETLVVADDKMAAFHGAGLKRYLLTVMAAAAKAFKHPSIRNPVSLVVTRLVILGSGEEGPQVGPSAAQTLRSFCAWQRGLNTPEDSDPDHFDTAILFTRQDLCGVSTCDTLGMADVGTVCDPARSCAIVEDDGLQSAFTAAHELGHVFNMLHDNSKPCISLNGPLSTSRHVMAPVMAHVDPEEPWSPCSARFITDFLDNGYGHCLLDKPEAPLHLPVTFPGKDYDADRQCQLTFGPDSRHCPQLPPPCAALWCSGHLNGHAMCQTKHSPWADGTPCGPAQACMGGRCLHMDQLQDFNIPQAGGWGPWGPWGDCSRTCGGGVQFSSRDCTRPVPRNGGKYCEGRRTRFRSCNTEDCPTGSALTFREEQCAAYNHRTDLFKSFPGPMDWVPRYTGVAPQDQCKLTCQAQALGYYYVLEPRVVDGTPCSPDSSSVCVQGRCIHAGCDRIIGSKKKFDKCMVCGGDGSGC

T2: ADAMTS5 (human, UniProt Q9UNA0 262-622, limits assumed)
T2 sequence (looked up): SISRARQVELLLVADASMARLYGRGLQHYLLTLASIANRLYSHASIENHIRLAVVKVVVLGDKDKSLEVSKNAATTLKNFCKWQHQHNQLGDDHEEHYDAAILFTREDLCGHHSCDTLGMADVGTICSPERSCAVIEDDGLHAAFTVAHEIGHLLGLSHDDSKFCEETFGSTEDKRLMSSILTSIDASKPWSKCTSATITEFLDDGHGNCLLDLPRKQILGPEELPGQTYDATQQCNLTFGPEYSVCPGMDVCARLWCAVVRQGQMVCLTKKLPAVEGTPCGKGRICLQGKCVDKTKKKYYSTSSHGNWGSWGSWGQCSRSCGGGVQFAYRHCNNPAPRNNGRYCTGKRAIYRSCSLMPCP

B1: Variant A2M, bait region SEQ ID NO 114 (other)
chain: SVSGKPQYMVLVPSLLHTETTEKGCVLLSYLNETVTVSASLESVRGNRSLFTDLEAENDVLHCVAFAVPKSSSNEEVMFLTVQVKGPTQEFKKRTTVMVKNEDSLVFVQTDKSIYKPGQTVKFRVVSMDENFHPLNELIPLVYIQDPKGNRIAQWQSFQLEGGLKQFSFPLSSEPFQGSYKVVVQKKSGGRTEHPFTVEEFVLPKFEVQVTVPKIITILEEEMNVSVCGLYTYGKPVPGHVTVSICRKYSDASDCHGEDSQAFCEKFSGQLNSHGCFYQQVKTKVFQLKRKEYEMKLHTEAQIQEEGTVVELTGRQSSEITRTITKLSFVKVDSHFRQGIPFFGQVRLVDGKGVPIPNKVIFIRGNEANYYSNATTDEHGLVQFSINTTNVMGTSLTVRVNYKDRSPCYGYQWVSEEHEEAHHTAYLVFSPSKSFVHLEPMSHELPCGHTQTVQAHYILNGGTLLGLKKLSFYYLIMAKGGIVRTGTHGLLVKQEDMKGHFSISIPVKSDIAPVARLLIYAVLPTGDVIGDSAKYDVENCLANKVDLSFSPSQSLPASHAHLRVTAAPQSVCALRAVDQSVLLMKPDAELSASSVYNLLPEKDLTGFPGPLNDQDDEDCINRHNVYINGITYTPVSSTNEKDMYSFLEDMGLKAFTNSKIRKPKMCPQLEAQEAGEGKEEEGLGSPVSQELGQRSELEGRGSPTEGEARGSKLRKYFPETWIWDLVVVNSAGVAEVGVTVPDTITEWKAGAFCLSEDAGLGISSTASLRAFQPFFVELTMPYSVIRGEAFTLKATVLNYLPKCIRVSVQLEASPAFLAVPVEKEQAPHCICANGRQTVSWAVTPKSLGNVNFTVSAEALESQELCGTEVPSVPEHGRKDTVIKPLLVEPEGLEKETTFNSLLCPSGGEVSEELSLKLPPNVVEESARASVSVLGDILGSAMQNTQNLLQMPYGCGEQNMVLFAPNIYVLDYLNETQQLTPEIKSKAIGYLNTGYQRQLNYKHYDGSYSTFGERYGRNQGNTWLTAFVLKTFAQARAYIFIDEAHITQALIWLSQRQKDNGCFRSSGSLLNNAIKGGVEDEVTLSAYITIALLEIPLTVTHPVVRNALFCLESAWKTAQEGDHGSHVYTKALLAYAFALAGNQDKRKEVLKSLNEEAVKKDNSVHWERPQKPKAPVGHFYEPQAPSAEVEMTSYVLLAYLTAQPAPTSEDLTSATNIVKWITKQQNAQGGFSSTQDTVVALHALSKYGAATFTRTGKAAQVTIQSSGTFSSKFQVDNNNRLLLQQVSLPELPGEYSMKVTGEGCVYLQTSLKYNILPEKEEFPFALGVQTLPQTCDEPKAHTSFQISLSVSYTGSRSASNMAIVDVKMVSGFIPLKPTVKMLERSNHVSRTEVSSNHVLIYLDKVSNQTLSLFFTVLQDVPVRDLKPAIVKVYDYYETDEFAIAEYNAPCSKDLGNADYKDDDDKGASHHHHHH
B2: Variant A2M, bait region SEQ ID NO 116 (other)
chain: SVSGKPQYMVLVPSLLHTETTEKGCVLLSYLNETVTVSASLESVRGNRSLFTDLEAENDVLHCVAFAVPKSSSNEEVMFLTVQVKGPTQEFKKRTTVMVKNEDSLVFVQTDKSIYKPGQTVKFRVVSMDENFHPLNELIPLVYIQDPKGNRIAQWQSFQLEGGLKQFSFPLSSEPFQGSYKVVVQKKSGGRTEHPFTVEEFVLPKFEVQVTVPKIITILEEEMNVSVCGLYTYGKPVPGHVTVSICRKYSDASDCHGEDSQAFCEKFSGQLNSHGCFYQQVKTKVFQLKRKEYEMKLHTEAQIQEEGTVVELTGRQSSEITRTITKLSFVKVDSHFRQGIPFFGQVRLVDGKGVPIPNKVIFIRGNEANYYSNATTDEHGLVQFSINTTNVMGTSLTVRVNYKDRSPCYGYQWVSEEHEEAHHTAYLVFSPSKSFVHLEPMSHELPCGHTQTVQAHYILNGGTLLGLKKLSFYYLIMAKGGIVRTGTHGLLVKQEDMKGHFSISIPVKSDIAPVARLLIYAVLPTGDVIGDSAKYDVENCLANKVDLSFSPSQSLPASHAHLRVTAAPQSVCALRAVDQSVLLMKPDAELSASSVYNLLPEKDLTGFPGPLNDQDDEDCINRHNVYINGITYTPVSSTNEKDMYSFLEDMGLKAFTNSKIRKPKMCPQLEELEGRGSKEEEGLGSIPENFFGVFYESDVMGRGHARLVHVEEPHTKLRKYFPETWIWDLVVVNSAGVAEVGVTVPDTITEWKAGAFCLSEDAGLGISSTASLRAFQPFFVELTMPYSVIRGEAFTLKATVLNYLPKCIRVSVQLEASPAFLAVPVEKEQAPHCICANGRQTVSWAVTPKSLGNVNFTVSAEALESQELCGTEVPSVPEHGRKDTVIKPLLVEPEGLEKETTFNSLLCPSGGEVSEELSLKLPPNVVEESARASVSVLGDILGSAMQNTQNLLQMPYGCGEQNMVLFAPNIYVLDYLNETQQLTPEIKSKAIGYLNTGYQRQLNYKHYDGSYSTFGERYGRNQGNTWLTAFVLKTFAQARAYIFIDEAHITQALIWLSQRQKDNGCFRSSGSLLNNAIKGGVEDEVTLSAYITIALLEIPLTVTHPVVRNALFCLESAWKTAQEGDHGSHVYTKALLAYAFALAGNQDKRKEVLKSLNEEAVKKDNSVHWERPQKPKAPVGHFYEPQAPSAEVEMTSYVLLAYLTAQPAPTSEDLTSATNIVKWITKQQNAQGGFSSTQDTVVALHALSKYGAATFTRTGKAAQVTIQSSGTFSSKFQVDNNNRLLLQQVSLPELPGEYSMKVTGEGCVYLQTSLKYNILPEKEEFPFALGVQTLPQTCDEPKAHTSFQISLSVSYTGSRSASNMAIVDVKMVSGFIPLKPTVKMLERSNHVSRTEVSSNHVLIYLDKVSNQTLSLFFTVLQDVPVRDLKPAIVKVYDYYETDEFAIAEYNAPCSKDLGNADYKDDDDKGASHHHHHH
B3: Variant A2M, bait region SEQ ID NO 115 (other)
chain: SVSGKPQYMVLVPSLLHTETTEKGCVLLSYLNETVTVSASLESVRGNRSLFTDLEAENDVLHCVAFAVPKSSSNEEVMFLTVQVKGPTQEFKKRTTVMVKNEDSLVFVQTDKSIYKPGQTVKFRVVSMDENFHPLNELIPLVYIQDPKGNRIAQWQSFQLEGGLKQFSFPLSSEPFQGSYKVVVQKKSGGRTEHPFTVEEFVLPKFEVQVTVPKIITILEEEMNVSVCGLYTYGKPVPGHVTVSICRKYSDASDCHGEDSQAFCEKFSGQLNSHGCFYQQVKTKVFQLKRKEYEMKLHTEAQIQEEGTVVELTGRQSSEITRTITKLSFVKVDSHFRQGIPFFGQVRLVDGKGVPIPNKVIFIRGNEANYYSNATTDEHGLVQFSINTTNVMGTSLTVRVNYKDRSPCYGYQWVSEEHEEAHHTAYLVFSPSKSFVHLEPMSHELPCGHTQTVQAHYILNGGTLLGLKKLSFYYLIMAKGGIVRTGTHGLLVKQEDMKGHFSISIPVKSDIAPVARLLIYAVLPTGDVIGDSAKYDVENCLANKVDLSFSPSQSLPASHAHLRVTAAPQSVCALRAVDQSVLLMKPDAELSASSVYNLLPEKDLTGFPGPLNDQDDEDCINRHNVYINGITYTPVSSTNEKDMYSFLEDMGLKAFTNSKIRKPKMCPQLEEEEGLGSKEEEGLGSPKEEEGLGSKEEEGLGSPKEEEGLGSKLRKYFPETWIWDLVVVNSAGVAEVGVTVPDTITEWKAGAFCLSEDAGLGISSTASLRAFQPFFVELTMPYSVIRGEAFTLKATVLNYLPKCIRVSVQLEASPAFLAVPVEKEQAPHCICANGRQTVSWAVTPKSLGNVNFTVSAEALESQELCGTEVPSVPEHGRKDTVIKPLLVEPEGLEKETTFNSLLCPSGGEVSEELSLKLPPNVVEESARASVSVLGDILGSAMQNTQNLLQMPYGCGEQNMVLFAPNIYVLDYLNETQQLTPEIKSKAIGYLNTGYQRQLNYKHYDGSYSTFGERYGRNQGNTWLTAFVLKTFAQARAYIFIDEAHITQALIWLSQRQKDNGCFRSSGSLLNNAIKGGVEDEVTLSAYITIALLEIPLTVTHPVVRNALFCLESAWKTAQEGDHGSHVYTKALLAYAFALAGNQDKRKEVLKSLNEEAVKKDNSVHWERPQKPKAPVGHFYEPQAPSAEVEMTSYVLLAYLTAQPAPTSEDLTSATNIVKWITKQQNAQGGFSSTQDTVVALHALSKYGAATFTRTGKAAQVTIQSSGTFSSKFQVDNNNRLLLQQVSLPELPGEYSMKVTGEGCVYLQTSLKYNILPEKEEFPFALGVQTLPQTCDEPKAHTSFQISLSVSYTGSRSASNMAIVDVKMVSGFIPLKPTVKMLERSNHVSRTEVSSNHVLIYLDKVSNQTLSLFFTVLQDVPVRDLKPAIVKVYDYYETDEFAIAEYNAPCSKDLGNADYKDDDDKGASHHHHHH

Experiments:
Experiment in all cases: cell-based or functional assay
ADAMTS4 = target: T1, ADAMTS4
ADAMTS5 = target: T2, ADAMTS5
MMP13 = MMP13 (human, UniProt P45452 104-471, limits assumed)

Binder | Protease Inhibition (% of WT) (ADAMTS4) | Protease Inhibition (% of WT) (ADAMTS5) | Protease Inhibition (% of WT) (MMP13)
B1 | 118 % of WT | 237 % of WT | 75 % of WT
B2 | 107 % of WT | 92 % of WT | 116 % of WT
B3 | 108 % of WT | 163 % of WT | 78 % of WT
